For the assay, the target named is T1, purified human factor D (from human plasma) (human, UniProt P00746 26-253).
T1 construct: mature; Also used here for the native factor D of normal human serum in the functional assays; also called human fD; fD
Kind of assay: SPR (Biacore-2000), purified human factor D amine-coupled to CM4 chip. As for the experimental part: FIG. 8 depicts the results of antigen binding affinity measurements for 1F10-5 mAb using Biacore. Purified human factor D was coupled onto CM4 chip using the amine coupling method. Biacore analysis was performed on a Biacore-2000 instrument. The chip was regenerated between each binding using 50 mM NaOH.
A general note: In SPR one partner is held on a chip, and binding of the other changes the refractive index at the surface.

T1 sequence (P00746 26-253): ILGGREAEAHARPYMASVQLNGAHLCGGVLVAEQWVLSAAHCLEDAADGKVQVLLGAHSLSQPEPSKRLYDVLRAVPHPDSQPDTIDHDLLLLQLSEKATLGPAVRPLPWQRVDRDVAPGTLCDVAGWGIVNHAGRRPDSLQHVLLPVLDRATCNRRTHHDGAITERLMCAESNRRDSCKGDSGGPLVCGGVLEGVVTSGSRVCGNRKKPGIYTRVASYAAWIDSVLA

B1: mAb 1F10-5 (murine anti-human factor D monoclonal antibody) (antibody, V domains shown)
VH: QIQLVQSGPELKKPGETVKISCKASGYTFTNFEMNWVKQAPGQGLNWMGCINTYTGDPIYADDFRGRFAFSLETSASTAYLQINNLKNEDMATYFCSREGGGDYWGQGTTLTVSS
VL: SIVMTQTPKFLLVSAGDRVTITCKASQSVTNDVAWYQQKPGQSPRLLIYHASNRYTGVPERFTGSGYGTDFTFTINTVQAEDLAVYFCQQDYSSPRTFGGGTKLEIKR
notes: Mouse hybridoma antibody; also called 1F10-mAb; IF10-5
For orientation: Kd means the concentration at which binding is half-saturated. B1: the Kd came to 0.15 nM.
